According to article PMC2268108 (The Journal of General Physiology, 2005):
Changes are numbered by the printed parent chain. Names may count otherwise.

How the values were obtained:
[1] = biological target: the molecule itself; assay: single-molecule fluorescence
[2] = biological target: the molecule itself; assay: single-molecule fluorescence; remark: listed apart in the source
[3] = biological target: the molecule itself; assay: SDS-PAGE of the tetramer
[4] = biological target: the molecule itself; assay: cross-linking

B1: pig gastric H/K-ATPase (αβ protomer), FITC-modified (complex)
chain 1: not shown
chain 2: MAALQEKKSCSQRMEEFQRYCWNPDTGQMLGRTLSRWVWISLYYVAFYVVMSGIFALCIYVLMRTIDPYTPDYQDQLKSPGVTLRPDVYGEKGLDISYNVSDSTTWAGLAHTLHRFLAGYSPAAQEGSINCTSEKYFFQESFLAPNHTKFSCKFTADMLQNCSGRPDPTFGFAEGKPCFIIKMNRIVKFLPGNSTAPRVDCAFLDQPRDGPPLQVEYFPANGTYSLHYFPYYGKKAQPHYSNPLVAAKLLNVPRNRDVVIVCKILAEHVSFDNPHDPYEGKVEFKLKIQK
- stoichiometry N [1]: 4
- stoichiometry N [2]: 2

B2: KcsA T75C (natural protein)
chain: MPPMLSGLLARLVKLLLGRHGSALHWRAAGAATVLLVIVLLAGSYLAVLAERGAPGAQLITYPRALWWSVETATCVGYGDLYPVTLWGRLVAVVVMVAGITSFGLVTAALATWFVGREQERRGHFVRHSEKAAEEAYTRTTRALHERFDRLERMLDDNRR
- binding result [3]: binds

B3: KcsA Thr75 to Ala (natural protein)
chain: B2 chain with C75A
- binding result [3]: binds

B4: KdpFABC complex from Escherichia coli (complex)
chain 1: MSAGVITGVLLVFLLLGYLVYALINAEAF
chain 2: MAAQGFLLIATFLLVLMVLARPLGSGLARLINDIPLPGTTGVERVLFRALGVSDREMNWKQYLCAILGLNMLGLAVLFFMLLGQHYLPLNPQQLPGLSWDLALNTAVSFVTNTNWQSYSGETTLSYFSQMAGLTVQNFLSAASGIAVIFALIRAFTRQSMSTLGNAWVDLLRITLWVLVPVALLIALFFIQQGALQNFLPYQAVNTVEGAQQLLPMGPVASQEAIKMLGTNGGGFFNANSSHPFENPTALTNFVQMLAIFLIPTALCFAFGEVMGDRRQGRMLLWAMSVIFVICVGVVMWAEVQGNPHLLALGTDSSINMEGKESRFGVLVSSLFAVVTTAASCGAVIAMHDSFTALGGMVPMWLMQIGEVVFGGVGSGLYGMMLFVLLAVFIAGLMIGRTPEYLGKKIDVREMKLTALAILVTPTLVLMGAALAMMTDAGRSAMLNPGPHGFSEVLYAVSSAANNNGSAFAGLSANSPFWNCLLAFCMFVGRFGVIIPVMAIAGSLVSKKSQAASSGTLPTHGPLFVGLLIGTVLLVGALTFIPALALGPVAEYLS
chain 3: MSRKQLALFEPTLVVQALKEAVKKLNPQAQWRNPVMFIVWIGSLLTTCISIAMASGAMPGNALFSAAISGWLWITVLFANFAEALAEGRSKAQANSLKGVKKTAFARKLREPKYGAAADKVPADQLRKGDIVLVEAGDIIPCDGEVIEGGASVDESAITGESAPVIRESGGDFASVTGGTRILSDWLVIECSVNPGETFLDRMIAMVEGAQRRKTPNEIALTILLIALTIVFLLATATLWPFSAWGGNAVSVTVLVALLVCLIPTTIGGLLSAIGVAGMSRMLGANVIATSGRAVEAAGDVDVLLLDKTGTITLGNRQASEFIPAQGVDEKTLADAAQLASLADETPEGRSIVILAKQRFNLRERDVQSLHATFVPFTAQSRMSGINIDNRMIRKGSVDAIRRHVEANGGHFPTDVDQKVDQVARQGATPLVVVEGSRVLGVIALKDIVKGGIKERFAQLRKMGIKTVMITGDNRLTAAAIAAEAGVDDFLAEATPEAKLALIRQYQAEGRLVAMTGDGTNDAPALAQADVAVAMNSGTQAAKEAGNMVDLDSNPTKLIEVVHIGKQMLMTRGSLTTFSIANDVAKYFAIIPAAFAATYPQLNALNIMCLHSPDSAILSAVIFNALIIVFLIPLALKGVSYKPLTASAMLRRNLWIYGLGGLLVPFIGIKVIDLLLTVCGLV
chain 4: MSGLRPALSTFIFLLLITGGVYPLLTTVLGQWWFPWQANGSLIREGDTVRGSALIGQNFTGNGYFHGRPSATAEMPYNPQASGGSNLAVSNPELDKLIAARVAALRAANPDASASVPVELVTASASGLDNNITPQAAAWQIPRVAKARNLSVEQLTQLIAKYSQQPLVKYIGQPVVNIVELNLALDKLDE
- stoichiometry N [4]: 2
